# Source: publication PMC12003327
# Assays:
# [1] = target: recombinant human integrin alphaV beta3 (αvβ3) (human) (UniProt P06756)
# [2] = target: recombinant human integrin alphaV beta3 (αvβ3) (human) (UniProt P06756); remark: listed apart in the source
# [3] = target: recombinant human integrin alphaV beta3 (αvβ3) (human) (UniProt P06756); remark: listed apart in the source
substance,measurement,setting,value
recombinant trimeric SARS-CoV-2 Omicron BA.1 spike protein (from UniProt P0DTC2 14-1273) (natural protein),"phosphorylation of FAK in HL-mECs 1 h after infection with authentic Omicron BA.1 (western blot, against not infected cells) (fold increase)",[1],2.3
same,"phosphorylation of Src in HL-mECs 1 h after infection with authentic Omicron BA.1 (western blot, against not infected cells) (fold increase)",[1],1.8
same,"ERK phosphorylation in HL-mECs after infection with authentic Omicron BA.1 (western blot, against not infected cells) (fold increase)",[2],3.5
same,inhibition of Omicron BA.1-induced ERK activation in HL-mECs pretreated with Heparinase III,[2],56%
same,inhibition of Omicron BA.1-induced ERK activation in HL-mECs pretreated with mAb anti-αvβ3,[2],44%
same,inhibition of Omicron BA.1-induced ERK phosphorylation in HL-mECs pretreated with sodium chlorate,[2],53%
same,inhibition of FAK activation by Omicron BA.1 in HL-mECs pretreated with Heparinase III,[3],48%
same,inhibition of FAK activation by Omicron BA.1 in HL-mECs pretreated with mAb anti-αvβ3,[3],54%
same,inhibition of FAK activation by Omicron BA.1 in HL-mECs pretreated with sodium chlorate,[3],48%
same,inhibition of pSrc activation by Omicron BA.1 in HL-mECs pretreated with Heparinase III,[3],66%
same,inhibition of pSrc activation by Omicron BA.1 in HL-mECs pretreated with mAb anti-αvβ3,[3],56%
same,inhibition of pSrc activation by Omicron BA.1 in HL-mECs pretreated with sodium chlorate,[3],65%
